Paper PMC10626209

Experiments:
[1] = molecular target: GFP-tagged SHROOM2 ASD2 domain (mouse protein 1,178–1,488 aa) (mouse); assay: SPR
[2] = molecular target: preformed SHROOM2:ROCK1 complex (mouse | human) (UniProt Q13464); assay: SPR

Substance	Kd [1] [nM]	fold higher affinity than for the single domain (printed: ROCK1 alone) [2] [fold]
GST-tagged ROCK1 SBD domain (834–913 aa) (from UniProt Q13464 834-913) (domain or fragment)	1000	
GST-tagged SCRIB C-terminal fragment (1,478–1,630) (from UniProt Q14160 1478-1630) (domain or fragment)	960	5
